Laboratory results: the supplement of paper PMC9732359
± gives the uncertainty stated by the source.

Experiment: protein stability index of a GFP-peptide fusion (yeast GPS) (PSI 1-4); higher = more stable; sorted into four equal gates, so the index is relative within each strain
Method in brief: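 The protein stability index of a peptide was calculated by multiplying its read frequency in each gate by that gate's number and adding the products. The peptides were tiled 17-residue stretches of yeast proteins, fused downstream of GFP on a Cherry-expressing plasmid and carried in yeast as a pooled library. Mid-log cultures in leucine-free medium were sorted into four equal gates by GFP/Cherry ratio, and each gate's plasmids were PCR-amplified and Illumina-sequenced.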

Row | Sequence | protein stability index (doa10∆) | protein stability index (pdr5∆) | protein stability index (san1∆) | protein stability index (ubr1∆)
1 | SVISGNLSLYEATAASH [CSN12] | 2.28 ± 0.063 | 2.87 ± 0.068 | 2.8 ± 0.069 | 2.7 ± 0.057
2 | SVKGKVVIDAFRLIDTG [RPN11] | 1.83 ± 0.12 | 2.38 ± 0.099 | 1.92 ± 0.15 | 1.79 ± 0.061
3 | SVLDEQEQYQTNTFEGS [SNU114] | 3.12 ± 0.14 | 3.22 ± 0.08 | 3.26 ± 0.11 | 3.31 ± 0.071
4 | SVPEGTIVSNVEEKPGD [RPL2A] | 3.23 ± 0.1 | 3.02 ± 0.082 | 3.39 ± 0.059 | 3.39 ± 0.11
5 | SVSFKVFLLLQAYFSRL [BRR2] | 1.39 ± 0.044 | 1.47 ± 0.063 | 1.22 ± 0.088 | 1.42 ± 0.051
6 | SVSGSPRPSYSSRPNVN [YMR129W/POM152] | 2.8 ± 0.091 | 2.72 ± 0.085 | 2.45 ± 0.066 | 2.77 ± 0.081
7 | SVVAKQLLNGQKIVVVR [RPL16A] | 1.25 ± 0.049 | 1.36 ± 0.053 | 1.62 ± 0.11 | 1.24 ± 0.057
8 | SVVRVLVHTQIRKTPLA [RPL3] | 1.19 ± 0.076 | 1.35 ± 0.096 | 1.11 ± 0.14 | 1.54 ± 0.046
9 | SWVQPRIISGDQITKMK [RPN9] | 3.76 ± 0.26 | 3.27 ± 0.12 | 2.94 ± 0.14 | 3.56 ± 0.2
10 | SYAGKQVVGPFHTSFSA [SMC4] | 2.7 ± 0.078 | 3.33 ± 0.11 | 3.08 ± 0.056 | 3.13 ± 0.049
11 | SYDCTGVNELAPIPKGR [POP1] | 2.84 ± 0.061 | 2.79 ± 0.057 | 3.01 ± 0.055 | 3 ± 0.042
12 | SYKMNSSAADITMESVH [PRP8] | 3.32 ± 0.11 | 3.19 ± 0.08 | 3.21 ± 0.095 | 3.17 ± 0.067
13 | SYLSNSLDTSASTINGA [YML103C/NUP188] | 2.31 ± 0.058 | 1.78 ± 0.063 | 1.76 ± 0.065 | 1.84 ± 0.06
14 | SYNLEYIESKFCPGEIV [YMR129W/POM152] | 3.15 ± 0.13 | 3.21 ± 0.19 | 3.12 ± 0.14 | 3.21 ± 0.096
15 | SYNNTGISDDENDEEDI [RRP4] | 2.85 ± 0.11 | 3.27 ± 0.12 | 2.84 ± 0.086 | 2.96 ± 0.099
16 | SYVEPVLVASAKGLQTV [RPL31A] | 2.2 ± 0.059 | 2.33 ± 0.08 | 2.23 ± 0.065 | 2.22 ± 0.082
17 | TAAEKKERLTKEAAAVA [RPL8A] | 3.25 ± 0.12 | 2.79 ± 0.16 | 3.13 ± 0.096 | 2.89 ± 0.15
18 | TAAFTAMICEAKGLIEN [YJR042W/NUP85] | 2.62 ± 0.067 | 2.86 ± 0.06 | 2.72 ± 0.068 | 2.94 ± 0.052
19 | TADAEILINTARIHAQN [PRE9] | 2.92 ± 0.094 | 2.85 ± 0.073 | 2.83 ± 0.099 | 2.96 ± 0.072
20 | TADKIRIHAKNFEAALF [GAL11] | 2.13 ± 0.068 | 2.05 ± 0.065 | 1.51 ± 0.11 | 2.29 ± 0.055
21 | TAEERVGRRAANLRVLN [RPL15A] | 2.83 ± 0.12 | 3.28 ± 0.14 | 2.75 ± 0.14 | 2.92 ± 0.11
22 | TAETNNKVHETSSKSSS [YDL088C/ASM4] | 2.86 ± 0.039 | 2.96 ± 0.045 | 2.84 ± 0.039 | 2.89 ± 0.032
23 | TAFQTQRTAQDRVQQDS [YML031W/NDC1] | 2.94 ± 0.086 | 2.62 ± 0.075 | 3.26 ± 0.076 | 2.35 ± 0.079
24 | TAKKTNRSAYDSKNTPN [YDL088C/ASM4] | 2.68 ± 0.089 | 2.78 ± 0.065 | 2.94 ± 0.052 | 2.9 ± 0.084
25 | TALEHKVVNGNSADAAY [FAS2] | 2.84 ± 0.08 | 3.09 ± 0.088 | 3.05 ± 0.063 | 3.13 ± 0.06
26 | TANDQYSSILGNSFNKS [YCG1] | 3.13 ± 0.069 | 3.18 ± 0.067 | 3.31 ± 0.038 | 3.46 ± 0.058

Row | Sequence | protein stability index (doa10∆) | protein stability index (pdr5∆) | protein stability index (san1∆) | protein stability index (ubr1∆)
27 | TANDRQINNVHLIPNEI [RPN4] | 2.88 ± 0.063 | 3.02 ± 0.062 | 2.92 ± 0.052 | 2.94 ± 0.055
28 | TANTGTIGKRRTTTNTT [TAF14] | 3.18 ± 0.06 | 3.29 ± 0.046 | 3.21 ± 0.045 | 3.19 ± 0.062
29 | TCRKHTQHKVTQYKAGK [RPL42A] | 3.09 ± 0.14 | 2.85 ± 0.12 | 2.62 ± 0.07 | 2.91 ± 0.088
30 | TDEALFENVKLLAEYDN [MED4] | 3.02 ± 0.11 | 3.17 ± 0.1 | 3.08 ± 0.088 | 2.87 ± 0.073
31 | TDENTPSADGADKKDDS [ITC1] | 3.04 ± 0.11 | 3.11 ± 0.062 | 3.36 ± 0.064 | 2.98 ± 0.061
32 | TDLGKDIPFFPSSEKPN [SSN2] | 2.7 ± 0.059 | 2.9 ± 0.077 | 2.57 ± 0.11 | 3.07 ± 0.037
33 | TDPKELYNNAHVYARDL [RPC40] | 3.51 ± 0.23 | 2.94 ± 0.11 | 2.93 ± 0.13 | 
34 | TDSDFAKYHAKLNKKLQ [SRP68] | 2.97 ± 0.059 | 3.12 ± 0.055 | 2.84 ± 0.043 | 3 ± 0.05
35 | TDVKLTLPQPRLNKLNS [SMD1] | 2.73 ± 0.066 | 2.79 ± 0.059 | 2.1 ± 0.071 | 2.73 ± 0.059
36 | TEDGWIYHGNHDVGELF [PRE2] | 2.05 ± 0.057 | 1.84 ± 0.049 | 2 ± 0.074 | 2.33 ± 0.043
37 | TEDIRIRAQNFKSALAN [RRP6] | 2.35 ± 0.067 | 2.41 ± 0.091 | 2.56 ± 0.1 | 2.73 ± 0.053
38 | TEGHKGHEELKRRIEEE [ISW2] | 3.33 ± 0.085 | 3.42 ± 0.09 | 3.11 ± 0.068 | 3.23 ± 0.065
39 | TEHVRQNAKLLANLIRD [RRP6] | 1.54 ± 0.046 | 1.93 ± 0.08 | 2.39 ± 0.14 | 1.62 ± 0.086
40 | TEIENYLLENNQVGTDE [YDL116W/NUP84] | 3.11 ± 0.11 | 2.9 ± 0.082 | 3.39 ± 0.072 | 2.84 ± 0.098
41 | TEIISTLSNGLIASHYG [BRR2] | 2.55 ± 0.076 | 2.79 ± 0.096 | 2.42 ± 0.1 | 2.33 ± 0.062
42 | TEISGLKNVNKRAFENF [SMC3] | 3.28 ± 0.079 | 3.09 ± 0.097 | 2.7 ± 0.096 | 2.96 ± 0.057
43 | TEKEPVPAVVDDPLENM [SNF6] | 2.85 ± 0.073 | 3.12 ± 0.08 | 2.69 ± 0.082 | 2.88 ± 0.068
44 | TELTHHLLPRNEWIKAQ [QCR7] | 2.37 ± 0.068 | 2.16 ± 0.073 | 2.04 ± 0.12 | 1.85 ± 0.046
45 | TESPLKTVDSSIQPIES [SSN2] | 2.99 ± 0.066 | 2.93 ± 0.053 | 2.91 ± 0.053 | 2.93 ± 0.03
46 | TETFEKPQRTNTLRMKH [RPB2] | 3.05 ± 0.16 | 3.21 ± 0.14 | 3.16 ± 0.1 | 3.05 ± 0.12
47 | TEVSRKSMKYVKKILPL [ECM29] | 2.34 ± 0.28 | 1.5 ± 0.24 |  | 1.18 ± 0.16
48 | TEYRGTLVSTDNYFNLQ [SMX3] | 1.83 ± 0.038 | 2.65 ± 0.046 | 2.4 ± 0.059 | 2.23 ± 0.041
49 | TFGINLIYVNPFMLQWG [FAS1] | 2.22 ± 0.067 | 2.35 ± 0.08 | 2.46 ± 0.074 | 2.4 ± 0.051
50 | TFGKKADVTSNIDSSAQ [YOR098C/NUP1] | 2.09 ± 0.058 | 2.23 ± 0.045 | 1.91 ± 0.11 | 2.57 ± 0.038
51 | TFIKDCLFTKCLEDPEK [POP4] | 1.57 ± 0.11 | 1.78 ± 0.091 | 1.57 ± 0.18 | 1.83 ± 0.061
52 | TFIYFAYFLIIVPVIST [COB] | 1.68 ± 0.05 | 1.3 ± 0.046 | 1.16 ± 0.087 | 1.1 ± 0.027
